# Measurements published in the supplement of paper PMC10065799, “High-throughput profiling of sequence recognition by tyrosine kinases and SH2 domains using bacterial peptide display” (eLife, 2023).
# Target: MERTK (UniProt Q12866)
# Assay: phosphorylation enrichment, bacterial display (enrichment ratio); higher = better substrate or ligand; peptides without Tyr show the background
# 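Further: 11-residue human phosphosite peptides and single-mutation variants displayed on the E. coli surface, counted by deep sequencing, each peptide's frequency after selection divided by its frequency in the unselected input library; frequency after pTyr selection over input frequency; kinase dosed for 20-30% of maximal phosphorylation in three min.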
# Sequence of MERTK (Q12866 whole entry, looked up): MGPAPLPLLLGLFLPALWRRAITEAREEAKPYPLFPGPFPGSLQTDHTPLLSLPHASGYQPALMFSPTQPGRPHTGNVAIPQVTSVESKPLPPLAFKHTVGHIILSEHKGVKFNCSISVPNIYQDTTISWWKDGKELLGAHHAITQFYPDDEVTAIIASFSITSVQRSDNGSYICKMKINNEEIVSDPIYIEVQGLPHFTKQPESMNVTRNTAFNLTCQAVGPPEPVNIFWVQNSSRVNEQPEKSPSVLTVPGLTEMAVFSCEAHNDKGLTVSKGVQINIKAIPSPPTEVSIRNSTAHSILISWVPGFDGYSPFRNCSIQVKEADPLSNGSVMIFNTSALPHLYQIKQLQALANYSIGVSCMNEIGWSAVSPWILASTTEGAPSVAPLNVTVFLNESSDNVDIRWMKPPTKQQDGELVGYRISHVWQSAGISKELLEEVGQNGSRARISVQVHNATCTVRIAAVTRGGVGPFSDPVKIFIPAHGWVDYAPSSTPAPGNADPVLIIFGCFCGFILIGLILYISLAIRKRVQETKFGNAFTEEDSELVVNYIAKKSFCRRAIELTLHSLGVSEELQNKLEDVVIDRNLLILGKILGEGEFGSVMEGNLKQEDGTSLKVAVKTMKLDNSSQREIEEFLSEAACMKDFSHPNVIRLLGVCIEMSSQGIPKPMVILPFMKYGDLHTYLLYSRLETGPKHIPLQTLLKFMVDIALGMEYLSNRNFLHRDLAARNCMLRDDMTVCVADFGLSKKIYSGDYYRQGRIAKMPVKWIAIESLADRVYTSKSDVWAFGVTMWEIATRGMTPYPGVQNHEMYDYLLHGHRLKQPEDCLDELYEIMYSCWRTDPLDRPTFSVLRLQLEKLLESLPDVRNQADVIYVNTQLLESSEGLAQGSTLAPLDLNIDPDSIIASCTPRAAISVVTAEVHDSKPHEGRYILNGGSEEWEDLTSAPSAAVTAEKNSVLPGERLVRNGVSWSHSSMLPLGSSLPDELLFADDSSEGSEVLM
row,Sequence,phosphorylation enrichment
1,RSFLSYYTSHV [NEFL_Y442_P440L],1.44
2,CKLFQYFLDHL [ATRX_Y1849_YF],0.526
3,MFNPMYALFRT [HUWE1_Y4078],6.9
4,QMIETYFDFRL [NSMF_Y506],2.65
5,KNKNRCKNILP [PTPN11_Y279_Y279C],0.581
6,KNDSNYVVKGN [KIT_Y823],0.382
7,VVRSLYEDLED [VHL_Y185_I180V],0.525
8,EVKAQYEDIAQ [KRT1_Y358],0.435
9,DRPASYLEKVR [KRT13_Y118_L115P],0.342
10,YAFQLYDLDRD [CHP2_Y123],2.83
11,TTANRYLKVSD [MYOM2_Y871],0.409
12,NQNIGYKLGHR [KCNN3_Y268],0.344
13,LEIETYRRLRD [KRT12_Y429_L433R],0.834
14,CPEARYNRSPI [PTAR1_Y42],0.433
15,GAVGHYVLAER [HFE_Y342_M339V],0.573
16,EKMWSYTKSAE [GRIA3_Y705_M706T],0.44
17,SEDANYKRVSC [TTC3_Y1288],0.449
18,GHNDVYILEHV [GRIN2A_Y1423_S1425L],0.378
19,MTRDIYRASYY [ALK_Y1278_A1274T],0.827
20,VDSIEYEVASQ [SLC7A7_Y7_T5I],0.545
21,GEVLVYAEDPA [FLNA_Y319_V320A],0.408
22,RARIRYAQEHD [NSD1_Y1987],0.627
23,FQKDVYNIPPS [NEDD9_Y177_D178N_YF],0.883
24,SFPHEYGSQEG [RBM10_Y48_R46H_YF],0.459
25,LVVFEYMRHGD [NTRK1_Y591_M587V],0.392
26,KNRDVSSSDFF [USP24_Y2134_Y2134S_YF],0.436
27,GEETDYTPVWC [UROD_Y30],0.468
28,YSDPSYVKQME [CDC5L_Y464],0.578
29,NAGDYYDLYGG [PTPN11_Y63_T59A],3.96
30,LPEVSYVKAID [GLRA1_Y307_K304E],0.07

# Test system: c-Abl (mouse)
# Assay: as above
row,Sequence,phosphorylation enrichment
1,AFLGEYIPTVF [RAC2_Y32_P29L],1.1
2,ESMLRYEVFGG [STOX1_Y607_YF],0.956
3,QLQQAYQEAFE [YWHAZ_Y149_S145L],1.6
4,RSFLSYYTSHV [NEFL_Y442_P440L],0.606
5,CKLFQYFLDHL [ATRX_Y1849_YF],0.933
6,MFNPMYALFRT [HUWE1_Y4078],1.19
7,QMIETYFDFRL [NSMF_Y506],1.62
8,KNKNRCKNILP [PTPN11_Y279_Y279C],1.37
9,KNDSNYVVKGN [KIT_Y823],0.568
10,VVRSLYEDLED [VHL_Y185_I180V],0.835
11,EVKAQYEDIAQ [KRT1_Y358],0.774
12,DRPASYLEKVR [KRT13_Y118_L115P],0.441
13,YAFQLYDLDRD [CHP2_Y123],0.768
14,TTANRYLKVSD [MYOM2_Y871],0.526
15,NQNIGYKLGHR [KCNN3_Y268],0.313
16,LEIETYRRLRD [KRT12_Y429_L433R],0.659
17,CPEARYNRSPI [PTAR1_Y42],0.55

row,Sequence,phosphorylation enrichment
1,GAVGHYVLAER [HFE_Y342_M339V],0.46
2,EKMWSYTKSAE [GRIA3_Y705_M706T],0.68
3,SEDANYKRVSC [TTC3_Y1288],0.82
4,GHNDVYILEHV [GRIN2A_Y1423_S1425L],0.54
5,MTRDIYRASYY [ALK_Y1278_A1274T],2.42
6,VDSIEYEVASQ [SLC7A7_Y7_T5I],0.821
7,GEVLVYAEDPA [FLNA_Y319_V320A],0.496
8,RARIRYAQEHD [NSD1_Y1987],0.706
9,FQKDVYNIPPS [NEDD9_Y177_D178N_YF],0.525
10,SFPHEYGSQEG [RBM10_Y48_R46H_YF],0.583
11,LVVFEYMRHGD [NTRK1_Y591_M587V],0.476
12,KNRDVSSSDFF [USP24_Y2134_Y2134S_YF],0.583
13,GEETDYTPVWC [UROD_Y30],0.785
14,YSDPSYVKQME [CDC5L_Y464],0.537
15,NAGDYYDLYGG [PTPN11_Y63_T59A],1.13
16,LPEVSYVKAID [GLRA1_Y307_K304E],0.132

# Test system: c-Src
# Assay: as above
row,Sequence,phosphorylation enrichment
1,AFLGEYIPTVF [RAC2_Y32_P29L],0.664
2,ESMLRYEVFGG [STOX1_Y607_YF],1.04
3,QLQQAYQEAFE [YWHAZ_Y149_S145L],1.12
